According to article PMC8315802 (2021):

Molecular target: F-actin (skeletal muscle actin) (Oryctolagus cuniculus, UniProt P68135)
Assay: actin co-sedimentation

Kd: 1 µM
B1: Rng2 (curly) 1-189 (protein)
chain: MDVNVGLSRLQSQAGAPVGTKGSNTRLAAKQRETLQAYDYLCRVDEAKKWIEECLGTDLGPTSTFEQSLRNGVVLALLVQKFQPDKLIKIFYSNELQFRHSDNINKFLDFIHGIGLPEIFHFELTDIYEGKNLPKVIYCIHALSYFLSMQDLAPPLIKSDENLSFTDEDVSIIVRRLRQSNVILPNFKA
